The source of these data is article PMC3900104.

B1: Myc-tagged DISC1, in COS7 [human] / FLAG-tagged TRAK1 (trafficking-protein-Kinesin-binding-1), aa 2-953, in COS7 [human] (parent)
chain 1: MPGGGPQGAPAAAGGGGVSHRAGSRDCLPPAACFRRRRLARRPGYMRSSTGPGIGFLSPAVGTLFRFPGGVSGEESHHSESRARQCGLDSRGLLVRSPVSKSAAAPTVTSVRGTSAHFGIQLRGGTRLPDRLSWPCGPGSAGWQQEFAAMDSSETLDASWEAACSDGARRVRAAGSLPSAELSSNSCSPGCGPEVPPTPPGSHSAFTSSFSFIRLSLGSAGERGEAEGCPPSREAESHCQSPQEMGAKAASLDGPHEDPRCLSRPFSLLATRVSADLAQAARNSSRPERDMHSLPDMDPGSSSSLDPSLAGCGGDGSSGSGDAHSWDTLLRKWEPVLRDCLLRNRRQMEVISLRLKLQKLQEDAVENDDYDKAETLQQRLEDLEQEKISLHFQLPSRQPALSSFLGHLAAQVQAALRRGATQQASGDDTHTPLRMEPRLLEPTAQDSLHVSITRRDWLLQEKQQLQKEIEALQARMFVLEAKDQQLRREIEEQEQQLQWQGCDLTPLVGQLSLGQLQEVSKALQDTLASAGQIPFHAEPPETIRSLQERIKSLNLSLKEITTKVCMSEKFCSTLRKKVNDIETQLPALLEAKMHAISGNHFWTAKDLTEEIRSLTSEREGLEGLLSKLLVLSSRNVKKLGSVKEDYNRLRREVEHQETAYETSVKENTMKYMETLKNKLCSCKCPLLGKVWEADLEACRLLIQSLQLQEARGSLSVEDERQMDDLEGAAPPIPPRLHSEDKRKTPLKVLEEWKTHLIPSLHCAGGEQKEESYILSAELGEKCEDIGKKLLYLEDQLHTAIHSHDEDLIQSLRRELQMVKETLQAMILQLQPAKEAGEREAAASCMTAGVHEAQA
chain 2: ALVFQFGQPVRAQPLPGLCHGKLIRTNACDVCNSTDLPEVEIISLLEEQLPHYKLRADTIYGYDHDDWLHTPLISPDANIDLTTEQIEETLKYFLLCAERVGQMTKTYNDIDAVTRLLEEKERDLELAARIGQSLLKKNKTLTERNELLEEQVEHIREEVSQLRHELSMKDELLQFYTSAAEESEPESVCSTPLKRNESSSSVQNYFHLDSLQKKLKDLEEENVVLRSEASQLKTETITYEEKEQQLVNDCVKELRDANVQIASISEELAKKTEDAARQQEEITHLLSQIVDLQKKAKACAVENEELVQHLGAAKDAQRQLTAELRELEDKYAECMEMLHEAQEELKNLRNKTMPNTTSRRYHSLGLFPMDSLAAEIEGTMRKELQLEEAESPDITHQKRVFETVRNINQVVKQRSLTPSPMNIPGSNQSSAMNSLLSSCVSTPRSSFYGSDIGNVVLDNKTNSIILETEAADLGNDERSKKPGTPGTPGSHDLETALRRLSLRRENYLSERRFFEEEQERKLQELAEKGELRSGSLTPTESIMSLGTHSRFSEFTGFSGMSFSSRSYLPEKLQIVKPLEGSATLHHWQQLAQPHLGGILDPRPGVVTKGFRTLDVDLDEVYCLNDFEEDDTGDHISLPRLATSTPVQHPETSAHHPGKCMSQTNSTFTFTTCRILHPSDELTRVTPSLNSAPTPACGSTSHLKSTPVATPCTPRRLSLAESFTNTRESTTTMSTSLGLVWLLKERGISAAVYDPQSWDRAGRGSLLHSYTPKMAVIPSTPPNSPMQTPTSSPPSFEFKCTSPPYDNFLASKPASSILREVREKNVRSSESQTDVSVSNLNLVDKVRRFGVAKVVNSGRAHVPTLTEEQGPLLCGPPGPAPALVPRGLVPEGLPLRCPTVTSAIGGLQLNSGIRRNRSFPTMVGSSMQMKAPVTLTSGILMGAKLSKQTSLR

In this assay the parent is B1. Description: co-immunoprecipitation (IP with Myc antibody, WB anti-FLAG), quantified. The conditions noted are these: with FLAG-tagged TRAK1 (trafficking-protein-Kinesin-binding-1), COS7 cells, n = 3 independent transfections, parent: 100, read off a plot.
In the case of chain 1 R35A R36A R37A R38A R41A R42A R47A, the percent of parent is 43 % of DISC1.
